According to patent US8058507B2, “HOPM1 mediated disease resistance to Pseudomonas syringae in Arabidopsis” (priority 2007, dated 2011):

Tests used:
AtMIN7 = assay: Detection of polyubiquitinated AtMIN7 in planta; format: cell-based, Arabidopsis thaliana; settings: MG132-treated N. benthamiana leaves
Excerpt: Left: AtMIN7:HA and 6×His:HopM1-300, 6×His:HopM301-712 or 6×His:HopM1-712 were transiently co-expressed in MG132-treated N. benthamiana leaves. Ubiquitinated proteins were detected by western blot (WB) with a polyclonal ubiquitin (Ub) antibody (Sigma Co.). Right: AtMIN7:HA and 6×His:HopM1-712 were transiently co-expressed in 1% DMSO (−)- or MG132-treated N. benthamiana leaves. AtMIN7 was immunoprecipitated (IP) using a polyclonal AtMIN7 antibody. Ubiquitinated AtMIN7 protein was detected by western blot (WB) with a polyclonal ubiquitin (Ub) antibody (Sigma Co.). See Materials and Methods for transient expression and immunoprecipitation of AtMIN7 and HopM1 in N. benthamiana leaves.

[1] = tested on: Arabidopsis Y2H cDNA library; assay: Yeast two-hybrid (Y2H) screening with HopM1 baits; format: binding; settings: protein used as bait
Excerpt: A LexA-based yeast two-hybrid system was used for screening an Arabidopsis Y2H cDNA library using full-length HopM1 and the dominant-negative domain of HopM1 (HopM11-300) as bait, in separate screenings. This system was based upon a pGilda Lex A expression vector (CLONTECHniques, OCTOBER 1999 p. 26-27, Clontech Laboratories Inc.; herein incorporated by reference in its entirety) for expressing HopM1 proteins in combination with a lacZ reporter gene on a separate plasmid that autonomously replicated in yeast (CLONTECHniques, OCTOBER 1999 p. 26-27, Clontech Laboratories Inc.; herein incorporated by reference in its entirety), see below for addition information (see, MATCHMAKER LexA Two-Hybrid System Catalog #K1609-1 and MATCHMAKER LexA Libraries User Manual (PT3040-1) Version It PR67300 and (Yeast Protocols Handbook, Protocol # PT3024-1 Version # PR13103, published 14 Mar. 2001; herein incorporated by reference in its entirety).
hopM1 DNA fragments were amplified by PCR using the primers listed below and standard PCR procedures then fragments were isolated and cloned into a bait vector pGilda Lex A (resistance to ampicillin (100 μg/ml) to E. coli hosts; Protocol # PT3147-5; Version # PR81829; Clontech Laboratories, Inc.; herein incorporated by reference in its entirety). […]

[2] = tested on: AtMIN2, AtMIN7, and AtMIN 10; assay: Immunoblot of AtMIN-HA proteins transiently co-expressed with HopM1 in N. benthamiana leaves; format: cell-based, Arabidopsis thaliana; settings: DEX-induced expression in N. benthamiana leaves
Protocol: Oligonucleotide primers used for amplifying hopMl and AtMIN genes from Pst DC3000 genomic DNA or Arabidopsis total cDNA, as applicable, used for creating these expression vectors are shown in FIG. 14. Two days after leaf infiltration, 0.3 μM DEX was applied to induce the expression of HopM11-712, or HopM11-300 or HopM11-712. Three hours after DEX treatment, leaf discs were taken for subsequent analyses using immunoblotting or co-immunoprecipitation experiments (see, EXAMPLES herein for procedures).
Plant cells expressing 6×His-HopM1 and AtMIN-HA proteins in N. benthamiana leaves were engineered to co-express a second transiently expressed protein, either full-length 6×His-HopM1 or 6×His-HopM11-300. […] Specifically, AtMIN7-HA was pulled down with HopM11-300, but not with 6×His-HopM1301-712. Please note that membrane associated AtMIN 10-HA was preferably eliminated during bacterial infection. Arrows indicate lanes in which DEX-induced expression of full-length HopM1 destabilized AtMIN2, AtMIN7, and AtMIN 10 (FIG. 6B).
Expression Plasmids for Nicotiana cells: For transient expression studies in Nicotiana benthamiana; expression plasmids were engineered to express C-terminal HA epitope-tagged AtMIN proteins using a constitutive CaMV 35S promoter operably linked to AtMIN sequences. […]

B1: full-length HopM1: Pst DC3000 type III effector, 712-aa virulence protein (SEQ ID NO:34) (protein)
chain: MISSRIGGAGGVELSRVNQQHDTVPAQTAHPNAVTAGMNPPLTPDQSGSHATESSSAGAARLNVAARHTQLLQAFKAEHGTAPVSGAPMISSRAALLIGSLLQAEPLPFEVMAEKLSPERYQLKQFQGSDLQQRLEKFAQPGQIPDKAEVGQLIKGFAQSVADQLEHFQLMHDASPATVGQHAKADKATLAVSQTALGEYAGRASKAIGEGLSNSIASLDEHISALDLTLQDAEQGNKESLHADRQALVDAKTTLVGLHADFVKSPEAKRLASVAAHTQLDNVVSDLVTARNTVGGWKGAGPIVAAAVPQFLSSMTHLGYVRLSTSDKLRDTIPETSSDANMLKASIIGMVAGIAHETVNSVVKPMFQAALQKTGLNERLNMVPMKAVDTNTVIPDPFELKSEHGELVKKTPEEVAQDKAFVKSERALLNQKKVQGSSTHPVGELMAYSAFGGSQAVRQMLNDVHQINGQTLSARALASGFGGAVSASSQTLLQLKSNYVDPQGRKIPVFTPDRAESDLKKDLLKGMDLREPSVRTTFYSKALSGIQSSALTSALPPVTAQAEGASGTLSAGAILRNMALAATGSVSYLSTLYTNQSVTAEAKALKAAGMGGATPMLDRTETALNNIRHPNRESLPHTFQKSTLSGIPRVAENAYHMGRGALQLPTQMAVDTVRVVDEGVLNAVASAREALKQPTKDDDALRALEEGLLDPR
modifications: 6xHis tag; Pseudomonas syringae pv. tomato str. DC3000
- polyubiquitination of AtMIN7 (AtMIN7): enhanced
- interactors recovered in Y2H screen [1]: failed to recover target interactor host proteins
- destabilization of AtMIN2, AtMIN7 and AtMIN10 [2]: destabilized
